Reference: publication PMC7534798
Where a chain is given by its changes, count along the chain named.

T1: SPRTN ZBD (human, UniProt Q9H040 151-215)
T1 sequence: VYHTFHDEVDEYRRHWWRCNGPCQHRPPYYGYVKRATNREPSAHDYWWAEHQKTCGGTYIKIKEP

T2: SPRTN ZBD-BR (human, UniProt Q9H040 151-245)
T2 sequence: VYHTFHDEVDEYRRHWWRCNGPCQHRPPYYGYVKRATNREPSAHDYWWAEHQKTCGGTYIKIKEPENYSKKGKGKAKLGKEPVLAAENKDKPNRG

T3: SPRTN-EQ (human, UniProt Q9H040 1-489, E112Q)
T3 sequence: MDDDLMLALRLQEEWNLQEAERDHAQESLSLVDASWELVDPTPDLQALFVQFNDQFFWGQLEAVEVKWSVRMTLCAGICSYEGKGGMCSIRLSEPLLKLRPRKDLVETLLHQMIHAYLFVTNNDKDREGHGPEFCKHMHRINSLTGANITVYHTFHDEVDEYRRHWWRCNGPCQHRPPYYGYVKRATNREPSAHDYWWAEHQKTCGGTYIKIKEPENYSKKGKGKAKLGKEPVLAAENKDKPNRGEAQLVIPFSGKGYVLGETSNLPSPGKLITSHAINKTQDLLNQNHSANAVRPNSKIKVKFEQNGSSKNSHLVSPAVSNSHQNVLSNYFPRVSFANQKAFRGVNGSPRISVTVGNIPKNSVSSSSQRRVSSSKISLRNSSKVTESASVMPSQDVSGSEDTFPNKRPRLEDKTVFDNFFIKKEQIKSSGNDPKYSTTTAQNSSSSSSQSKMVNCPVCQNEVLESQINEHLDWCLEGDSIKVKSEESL

B1: poly(dA) 15-mer (ssDNA)
DNA: AAAAAAAAAAAAAAA
B2: 15-mer hairpin (oJS_106) (structured_DNA)
DNA: GATGTCCTAGCAAGG
B3: 5' DPC ss (X1) (ssDNA)
DNA: TCCAGTGCCTTGCTAGGACATCTTTGCCCA
modifications: T1 is SH-C9-dT crosslinked to protein G; 3' phosphate
B4: dsDNA DPC (C3A11XA12C3 + 30-mer) (dsDNA)
DNA 1: CCCAAAAAAAAAAATAAAAAAAAAAAACCC
DNA 2: GGGTTTTTTTTTTTTATTTTTTTTTTTGGG
modifications: T15 is SH-C9-dT crosslinked to protein G; 3' phosphate on strand 1
B5: ss/dsDNA junction DPC (C3A11XA12C3 + 15-mer) (mixed)
DNA 1: B4 DNA 1
DNA 2: GGGTTTTTTTTTTTT
modifications: T15 is SH-C9-dT crosslinked to protein G; 3' phosphate on strand 1
B6: 3' DPC ss (X30) (ssDNA)
DNA: B3 DNA with T1A, A30T
modifications: T30 is SH-C9-dT crosslinked to protein G; 3' phosphate
B7: internal DPC ss (X15) (ssDNA)
DNA: B3 DNA with T1A, A15T
modifications: T15 is SH-C9-dT crosslinked to protein G; 3' phosphate
B8: internal DPC dsDNA (X15) (dsDNA)
DNA 1: B3 DNA with T1A, A15T
DNA 2: TGGGCAAAGATGTCCAAGCAAGGCACTGGT
modifications: T15 is SH-C9-dT crosslinked to protein G; 3' phosphate on strand 1

The binders below were run against T1, SPRTN ZBD (assay: NMR).

Binding result, binds:
B1

These binders were tested against T2, SPRTN ZBD-BR (assay: NMR).

Binding result, binds:
B1

The binders below were run against T3, SPRTN-EQ (assay: EMSA).

Binding result, binds:
B2
B3
B4
B5
B6
B7
B8
